The record followed here is the DeepSol protein solubility set.

The series is described as follows: soluble on expression in E. coli; label from the status in PepcDB or PDB records.
As for “MGSDKIHHHHHHMKNGKISESVLKRSVLKQLHTKSDRILFKPAVGEDCAVISMQAGGKTKLVTATQTFTLDVSDKHVRANCAVYDALNNIYAMGADPVGIELALLVPTTENEAVLRETVRAIDAVCEKAGIVVLGGHTQVSRAVKNIVVTVTAIGEAYEQALTPSSAAAPGMDVIVTGYVGLEGTAILANEKRTELETRFSKAFIDKSAAYIDHISTAMEAASAIGAGVAAIHDASQGGIFGALWDMAEASGIGLDIDLKKLPIRQDTIEISEFFDINPYKLLSGGSLIIIAADGTRVVRELEKTGQNAVIVGATTDSNDRVLISGEERRFLETAQTDEIYKVFN”, the “soluble on expression in E. coli” value was “not soluble”. Next, “MVAEGFRLDLLLTIAQLVPSTYHYQVKQLDKPDKDKDLKAEIQAIYDEHKGNYGYRRIHLELRNRGFSVNHKKVQGLMKELGLTARIRRRKRYKSYKGDVGKKAPNLIERAFEGAKPFEKCYTDVTEFALPNCAEKLYLSPVLDGYNSEIIDFTLSRSPNLIQVKTMLEKVFPEETYPNTILHSDQGWQYQHEVYHRFLASKGIRPSMSRKGTSTDNSMMESFFGVLKTEMFYGFEKNFKSLDQLEQAITEYIFYYNNKRIKTKLKGLSPVQYRTKSFQ”: “not soluble”; “METAMSKGVITITDAEFESEVLKAEQPVLVYFWASWCGPCQLMSPLINLAANTYSDRLKVVKLEIDPNPTTVKKYKVEGVPALRLVKGEQILDSTEGVISKDKLLSFLDTHLNNN”: “soluble”. Next, “MLQYPELPLESPLIDAELPDPRGGRYRLSQFHEPLLAVVFMCNHCPYVKGSIGELVALAERYRGKVAFVGINANDYEKYPEDAPEKMAAFAEEHGIFFPYLLDETQEVAKAYRALRTPEVFLFDERRLLRYHGRVNDNPKDPSKVQSHDLEAAIEALLRGEEPPLKEAPAIGCTIKWRPGNEPEVRIG”: “soluble”. The same measure for “PPFTGDERASIQRACEAGVEKIIVPATEAAHFPRVLALAARFPSLYAALGLHPIVIERHADDDSDKLQQALAQQQNVVAVGEIGLDLYRDDPQFARQERFLDAQLQLAKRYDLPVILHSRRTHDKLAMHLKRQDLPRTGVVHGFAGSLQQAERFVRLGYKIGVGGTITYPRASKTRDVMARLPLDALLLETDAPDMPLKGFQGQPNRPEQAARVFDALCELRPE”: “not soluble”; for “MGSDKIHHHHHHMRADLTPFLNDRLDWNLLRTYLVIMQERSVSRAAARLHVTQPAVSQALRRLEDTLERKLIERRGAHFAPTPAGEAVYRIASDIYGGVSRLETELDDSTADLTGSIRLLTVSRIESPVYDAFLADFHRAYPRIDLQIEVMRSSDILSSLLQKTATAGLGLCRTPHDKLEMRCFLRQRYAIYCGRHHRLFGQTQLRMEDLLAENFVSFTSDQIGDSLSPLTVFRDQKGFTGRIVASSPSLEEVRRLIFAGYGIGCLPEHIVRDDIAQQRLWRLPPDDGLVDVDVFLLWHRDRKMNAAEHAFLDAMERCMQQHSLAERLGM”: “not soluble”; for “MKKAGKKNSDAGKTFILISSSCSSCQKAIEFFDQNKISYVVENFYKKPISDKRFKDILSLSEDGTESLFSKRADQIKATNSVSVEELSISELIKLVRERPSLLRRPIIIQYNSSGIPKRMRIGYNSSEIKVFERKLIEPKPIIQQ”: “soluble”.

Regarding “MGLREIEKVTVFCLANENTDISYEVNRALGEIRIYVPYDFMDFLALNSVEEKYKEFCKLVRQYVVPGLEENSTLSSSVVKGYIEESLDEIVKQNYEGIFLVGKTPKKSPSRKKIAILKGIHRVKGFQLRCEVYDEKGLKIRDQLLVEEVGNEMVYSRFLGTLKWESENLIVVQSKSSSWKEEIYL”, the “soluble on expression in E. coli” value is listed as “not soluble”. “MESSKKMDSPGALQTNPPLKLHTDRSAGTPVFVPEQGGYKEKFVKTVEDKYKCEKCHLVLCSPKQTECGHRFCESCMAALLSSSSPKCTACQESIVKDKVFKDNCCKREILALQIYCRNESRGCAEQLTLGHLLVHLKNDCHFEELPCVRPDCKEKVLRKDLRDHVEKACKYREATCSHCKSQVPMIALQVSLLQNESVEKNKSIQSLHNQICSFEIEIERQKEMLRNNESKILHLQRVIDSQAEKLKELDKEIRPFRQNWEEADSMKSSVESLQNRVTELESVDKSAGQVARNTGLLESQLSRHDQMLSVHDIRLADMDLRFQVLETASYNGVLIWKIRDYNRRKQEAVMGKTLSLYSQPFYTGYFGYKMCARVYLNGDGMGKGTHLSLFFVIMRGEYDALLPWPFKQKVTLMLMDQGSSRRHLGDAFKPDPNSSSFKKPTGEMNIASGCPVFVAQTVLENGTYIKDDTIFIKVIVDTSDLPDP”: the “soluble on expression in E. coli” value was “soluble”. “MTLPVRKSLHDAVLQASKADTWEQATKEWNEVSFIFNGIGRSNCVCGNAIKYAYELFNGVTGQRLFPIGSDCVRHFHRLSLDQQLEEEEKLLRKVENLTRKAQKKEKIKVNKSNFDERLLKWLWEKGVFKPNRGNQFAPERDYQLFLEVFQGGSWTKAEPKKKARMEEVLEKCIKPFLLGKSDDQLYLVKLGKEKIDYEQELRIQAEKERKKRDKIAKQYADNLVLAMGPAERAYQDYFGFTETLTQEERKWEKILFGKNRAERAIKAKQYQKELEKDQRIASQDPIERKQKQTWILNSYFRELPEEKARFSRLLLEYRKSGEVPFSTEYLSDHLIDFFYKMKAFEFEIAPEQVRDFLKKSLQEDHRSSAQGSWIEGILLNCLKPFLERLVI”: the “soluble on expression in E. coli” value was “not soluble”. Consider “MGSDKIHHHHHHMKTELVQVETEDSIVLHGAFYEAEQGKPAIIIMHGAAMNFYTGLGRFLPEILSEHGFSCLSANNRGHDFGTAPDHDRKPVIGLMRDIFKDCVKDVQALLHFLRSRGYPRVILLGHSQAIPKLLYAQNQLQFPEVQGMILVSPPPSVSKMMRYLTTDNYYERGLFKANELGEMGMYDQLIVLRGRGTMPWIFTVSTFLDFYGPNTPADTEELVKEIYCPMLLIRGSMDFPPVSMELMHNMKQNAAVPESVTIREINEASHFYSGQEKQLGNTILEWLDSY”, for which the “soluble on expression in E. coli” value is reported as “not soluble”. For “MGHHHHHHSHMASGSNWLSGVNVVLVMAYGSLDLKEEIDIRLSRVQDIKYEPQLLADDDARLLQLETQGNQKIPFHSEGRHPRSLMGKNFRSYLLDLRNTSTPFKGVRKALIDTLLDGYETARYGTGVFGQNEYLRYQEALSELATAVKARIGSSQRHHQSAAKDLTQSPEVSPTTIQVTYLPSSQKSKRAKHFLELKSFKDNYNTLESTL”, the “soluble on expression in E. coli” value was “not soluble”. Consider “AIATANLAATDDWGELLDVLDPGDPTGSRVIARYDRLRVHREGLLHRSVHVCVVRSVPDWPAQVHGLRNTNYKLLLQRRSESKAIAPGCWDLSCAEHLRAGESFEGAAVRGLQEELGLALAPDQQTTPIHALDDGEPALQLYDYPSVGLTDYEWNRIYVVFVTDQADEALAKLKLDSAEVAQVRWITRESLQMELAENPSHFTPWFRDQARKHLLPSAYN”, for which the “soluble on expression in E. coli” value is reported as “soluble”. “MGSDKIHHHHHHMDDFVQSKARKDIFRLKAYVPGKPIEEVKRELGLDSIIKLASNENPLGTSPLALAALQEGLNKIHLYPDANAYELKQELASFWQVPAEQIVVGNGSDELLLLLAQTFINPGDEVIHAEQTFSEYESTSTLMGAHSITIPLKEYKYDLKAILEAINTRTKIIYLCNPNNPTGTIVEQEEIELFMQQVPGEILVVFDEAYGEYVDNPAFGSGLQYLREGRNIVLLKTFSKIYGLAGLRIGYVITTPAIAAALDRVREPFNVNFAAQIAAQAALRDIDFVEKSRQLNLQGKDYLYQELARLGLDYVKTNTNFIFLDTGRDCQLVFRELLQRGVIIRTGDIFGYPTFIRLTIGTMEENRRFIKSLQEVLEVIPL”: the “soluble on expression in E. coli” value is on record as “not soluble”. Turning to “MTKVLFITANPNSAEGSFGMAVGEAFIEAYKNEHPQDEVVTIDLFNTTVPAIDADVFAAWGKFAAGEGFEALTEVQQQKVAAMNTNLETFMNADRYVFVTPMWNFSYPPVVKAYLDNVAIAGKTFKYTENGPVGLLEGKKALHIQATGGVYSEGAYAAVDFGRNHLKTVLGFVGVNDTEYIAVEGMNANPEKAQEIKEAAIANARELAKRF”, the “soluble on expression in E. coli” value is “not soluble”. With “MRLFIAEKPSLARAIADVLPKPHRKGDGFIECGNGQVVTWCIGHLLEQAQPDAYDSRYARWNLADLPIVPEKWQLQPRPSVTKQLNVIKRFLHEASEIVHAGDPDREGQLLVDEVLDYLQLAPEKRQQVQRCLINDLNPQAVERAIDRLRSNSEFVPLCVSALARARADWLYGINMTRAYTILGRNAGYQGVLSVGRVQTPVLGLVVRRDEEIENFVAKDFFEVKAHIVTPADERFTAIWQPSEACEPYQDEEGRLLHRPLAEHVVNRISGQPAIVTSYNDKRESESAPLPFSLSALQIEAAKRFGLSAQNVLDICQKLYETHKLITYPRSDCRYLPEEHFAGRHAVMNAISVHAPDLLPQPVVDPDIRNRCWDDKKVDAHHAIIPTARSSAINLTENEAKVYNLIARQYLMQFCPDAVFRKCVIELDIAKGKFVAKARFLAEAGWRTLLGSKERDEENDGTPLPVVAKGDELLCEKGEVVERQTQPPRHFTDATLLSAMTGIARFVQDKDLKKILRATDGLGTEATRAGIIELLFKRGFLTKKGRYIHSTDAGKALFHSLPEMATRPDMTAHWESVLTQISEKQCRYQDFMQPLVGTLYQLIDQAKRTPVRQFRGIVAPGSGGSADKKKAAPRKRSAKKSPPADEVGSGAIAHHHHHH”, the “soluble on expression in E. coli” value was “soluble”. Turning to “MRRNSKERKNRATRRSQGSYQEIIGRTWIFRGAHRGRVTRRNIIWHELIGLRVRIVGSTHPAFVGIEGYVIDETRNMLVIAGDRIWKVPKDVCIFEFEADDGTKIKIPGERLVGRPEMRLKKRWKKWLEHHHHHH”, the “soluble on expression in E. coli” value is on record as “not soluble”. Next, “MSLDEAWKSLEKLRGVKLLPGNKVLLKRGEVFNGELEITGQGIPEDRIYIDAYGDDERKPCIVGYDTSLYAARICNSDYITMQNLEIVNTGRQPLPYRSGLKIECMDYGVSQNIVVNNVTVRDVNGSLVKEKGGGCGIYIVNGGEKKISTFNRLTIENCHILRCTRNAMIWAAYSDRQNWHPSKHTVIRGNLIEEVPGDGIVPIGCDSTLIEYNVMRDCPDMLPDTEAAAGIWPWSCDNTLVQFNEVSGHKAPWDAQGFDSDWNCRGTVIQYNYSHDNYGGLVLVCNDGTADASFNVGNLGTIVRYNVSIGDGVRPEPTRAGMFSPAVHLAGPVKDSRITRNIIHVNRKPAADIDRTMITLDSWGGYPDSTFISGNIFYAPESSRFQLTESTHNFFEGNYYLGRFEKLPEDGKACQSAEIYQKEVLAKDENGYQGLALLMDTVEVTGVKGVFVNKEAIENFFSRLEKEGHHHHHH”: “not soluble”; “MGAAKPIFVEHSIVIDRPAQQVYDYWRKLENLPQIMSHLESVTVLDDKRSRWVAKAPLGTHVEWEAEVVNDKPGERIGWHSLPGATVDNAGSVQFESLPDDKTRVHVALSYRPPAGPLGAAVAKLFGEEPSQQIAEDLQKFKATFEGLEHHHHHH”: “not soluble”; “MPRRHSIVYAVEYDGDIYAITGITHETRNYLYKYIVKEDKWIELYMYFNHVGKTFVCSCGDYILIIADAKYEYYPKSNTWNLFDMSTRNIEYYDMFTKDETPKCN”: “not soluble”. For the sequence “MSVELRDATVDDLSGIMEIYNDAVVNTTAIWNEVVVDLENRKDWFAARTSRGFPVIVAILDGKVAGYASYGDWRAFDGYRHTREHSVYVHKDARGHGIGKRLMQALIDHAGGNDVHVLIAAIEAENTASIRLHESLGFRVVGRFSEVGTKFGRWLDLTCMELKLG”, the “soluble on expression in E. coli” value is “not soluble”.

Turning to “MAGDPMTFLIIRQTHENVLSKETVVKKVEASYEGKVTKATQSKDKKTYDITLENPKGTYFVKADAISADILSMNRVKAVNPSAMTEKEAEHLALERVPGTVKKQTRQSQVATYTIQKEDGKTYEVKVDMQAKTVLSADQISSKDQQKTPITKKEAKTIAERKTGGTADDADLEESEGTLIFEVDVDLPDNKEATVKINAYTGKVANIVYEDLEHHHHHH”, the “soluble on expression in E. coli” value is reported as “not soluble”.
